{"source": "patent US6586197B1", "about": "“Methods and materials for identifying novel pesticide agents” (priority 1999, dated 2003)", "key": {"[1]": {"target": "T1, purified 115 kDa APN from Manduca sexta (Manduca sexta, UniProt Q11001)", "T1 sequence (Q11001 36-968 limits assumed)": "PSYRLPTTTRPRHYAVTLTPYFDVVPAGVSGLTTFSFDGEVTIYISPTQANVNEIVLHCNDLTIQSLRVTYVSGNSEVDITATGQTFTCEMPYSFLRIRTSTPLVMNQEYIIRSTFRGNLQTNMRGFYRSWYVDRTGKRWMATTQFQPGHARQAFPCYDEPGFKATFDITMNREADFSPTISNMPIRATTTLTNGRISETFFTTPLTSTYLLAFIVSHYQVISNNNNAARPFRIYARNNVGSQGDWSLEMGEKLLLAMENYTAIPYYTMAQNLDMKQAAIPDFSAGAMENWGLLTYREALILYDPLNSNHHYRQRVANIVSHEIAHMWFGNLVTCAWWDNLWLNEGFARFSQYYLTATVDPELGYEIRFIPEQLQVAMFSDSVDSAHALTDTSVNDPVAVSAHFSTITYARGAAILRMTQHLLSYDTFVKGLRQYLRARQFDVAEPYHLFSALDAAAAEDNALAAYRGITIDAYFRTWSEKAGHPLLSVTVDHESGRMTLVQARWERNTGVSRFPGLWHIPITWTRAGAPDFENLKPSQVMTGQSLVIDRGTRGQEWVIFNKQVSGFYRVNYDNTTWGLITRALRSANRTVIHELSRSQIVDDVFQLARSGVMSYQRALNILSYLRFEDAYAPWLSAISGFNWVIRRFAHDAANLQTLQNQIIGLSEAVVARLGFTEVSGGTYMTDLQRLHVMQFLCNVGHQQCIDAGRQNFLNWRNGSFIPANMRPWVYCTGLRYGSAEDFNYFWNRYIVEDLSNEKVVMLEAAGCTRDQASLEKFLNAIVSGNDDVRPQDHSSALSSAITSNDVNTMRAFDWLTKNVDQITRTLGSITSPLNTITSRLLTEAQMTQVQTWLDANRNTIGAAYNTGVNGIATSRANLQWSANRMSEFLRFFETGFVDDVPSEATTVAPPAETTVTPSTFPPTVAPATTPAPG", "settings": "Masson et al., 1995; cited from earlier work"}, "[2]": {"target": "T2, M. sexta 120 kDa APN (Manduca sexta, UniProt Q11001)", "T2 sequence (Q11001 36-968)": "T1 sequence (Q11001 36-968 limits assumed)", "settings": "previous studies (Knight 1994; Sangadala 1994; Masson 1995; Lu and Adang 1996); cited from earlier work"}, "[3]": {"system": "Sf21 cells transfected with pHSP120", "test": "Toxicity assay (Trypan blue cell mortality), Sf21 cells expressing M. sexta 120 kDa APN", "settings": "2 h", "method": "(§1) The pHSP120 plasmid DNA was isolated and purified using a Plasmid Maxi Kit (Qiagen, Valencia, Calif.). Sf21 (IPLB-Sf21) cells (Vaughn et al., 1977) were plated at 1.8×10^6 cells per plate (60 mm diameter) prior to transfection with pHSP120 DNA. Plasmid DNA (10 μg) was mixed with 5 μl of Lipofectin reagent (Gibco BRL, Gaithersburg, Md.) and combined with 1 ml of TC-100 medium (Gibco BRL, Gaithersburg, Md.). The mixture was incubated at room temperature for 15 min. Following 3 washes with TC-100 medium, the DNA/Lipofectin mixture was added to the cells, and then the cells were incubated at room temperature for 4 h on a rocker. After removal of DNA/Lipofectin mixture, TC-100 with 10% fetal bovine serum (4 ml) was added to the plates and the cells were incubated at 27° C. overnight. Expression of 120 kDa APN in Sf21 cells was induced by heat-shocking cells at 42° C. for 30 min the following day. After incubation at 27° C. for 24 h, the cells were collected and analyzed using immunofluorescence localization and Western blotting.\nSf21 cells (1.8×10^6) were grown and heat-shocked as described above. […] The freshly prepared toxin solution (1 ml) was added to each Sf21 cell plate and incubated at room temperature for 2 h. Cell mortality was determined by trypan blue staining as described by Thomas and Ellar (1983).\n(§2) Thetoxicity of three Cry1toxins to Sf21 cells expressing M sexta 120 APN was determined. A single concentration of Cry1toxins (40 μg/ml) was used and the cell mortality was measured by Trypan blue staining (Thomas and Ellar 1983)."}, "[4]": {"system": "Sf21 cells transfected with pHSP-HR5", "test": "Toxicity assay (Trypan blue cell mortality), control-vector Sf21 cells", "settings": "2 h", "method": "as §1, with “Expression of 120 kDa APN in Sf21 cells was induced by heat-shocking cells at 42° C. for 30 min the following day.” left out\nSf21 cells (1.8×10^6) were grown and heat-shocked as described above. […] Cell mortality was determined by trypan blue staining as described by Thomas and Ellar (1983).\nas §2"}, "[5]": {"system": "expressed 120 kDa APN on Sf21 cells transfected with pHSP120", "test": "Immunofluorescence binding of rhodamine-labeled toxins to Sf21 cells (confocal microscopy), pHSP120", "parameters": "species or system Manduca sexta", "settings": "toxin 1 μg/ml, fixed Sf21 cells transfected with pHSP120", "method": "Growth of B. thuringiensis strains, trypsin activation, and fast-performance liquid chromatography (Pharmacia) purification of Cry1Ac, […] and Cry3a toxins were done as previously described (Garczynski et al 1991; Lu and Adang 1996). […] The purified Cry1Ac and Cry1Ba (200 μg) were labeled with 5-(and-6)-carboxytetramethylrhodamine, succinimidyl ester [5(6)-TAMRA SE] (Molecular Probe, Eugene, Oreg.) according to the manufacturer's instructions. Briefly, 5(6)-TAMRA (5 mg) were dissolved in 0.5 ml of Dimethylformamide (DMF) immediately before starting the labeling. The dye solution (100 μl) was slowly added into 500 μl of toxin sample (200 μg toxins) and incubated for 1 h at room temperature. The reaction was stopped by adding 0.1 ml of 1.5 M hydroxylamine, pH 8.5, and then the mixture was incubated. for 1h at room temperature. […]\nSf21 cells were plated onto a microscope cover glass (18×18 mm) in a tissue culture dish (60×15 mm diameter), and then transfected and heat-shocked as described above. […] Immunostained cells were observed using fluorescence microscopy or fluorescence confocal microscopy (Center for Advanced Ultrastructural Research, University of Georgia).\nSince the expressed 120 kDa APN located on Sf21 cell surfaces, we examined the binding of Cry1toxins to Sf21 cells using double immunofluorescence staining. […] And then cells were viewed by fluorescence confocal microscopy."}, "[6]": {"system": "expressed 120 kDa APN from Sf21 cells", "test": "Toxin affinity chromatography and anti-APN immunoblot, Sf21 cells", "format": "binding, Manduca sexta", "settings": "CHAPS-solubilized Sf21 cells, anti-APN immunoblot (FIG. 13)", "method": "Affinity purification method of M. sexta 120 kDa APN from Sf21 cells or M. sexta midgut BBMV was described in Luo et al (1996). Briefly, Cry1Ac, Cry1Ba and Cry3a toxins (200 μg) were coupled to 400 μl of cyanogen bromide-activated Sepharose 4B in 20 mM Na2CO3, pH 9.6. M sexta BBMV (1 ml, 3.4 mg/ml proteins) or Sf21 cells (10^7 cells) were solubilized with 2% 3-[(3-cholamidopropyl) dimethylammoniol]-1-propane-sulphonate (CHAPS) in buffer A (50 mM Na2CO3, pH 9.6, 200 mM NaCl, 5 mM EGTA, 0.1% CHAPS). Insoluble material was removed by centrifugation at 27,000×g for 30 min at 4° C. CHAPS-solubilized BBMV (1 ml) or Sf21 cells (2 ml) were then added to the toxin-coupled Sepharose beads equilibrated with Buffer A. The mixture was incubated at 4° C. overnight. After washing with 100 ml of Buffer A, the binding protein-toxin complex was dissociated from the beads by heating in SDS-PAGE sample buffer at 100° C. for 5 min. The samples were separated by 8% SDS-PAGE, and then electrophoretically transferred to nitrocellulose membrane (Millipore Corp., Bedford, Mass.) in transfer buffer (Towbin et al., 1979) at 4° C. overnight. The membrane was blocked with 5% non-fat dry milk in PBST at room temperature for 1 h, and then probed with anti-APN antibody (0.5 μg/ml) in PBST containing 0.1% non-fat dry milk for 2 h. […]"}, "[7]": {"system": "expressed M sexta APN1a", "test": "Aminopeptidase N activity assay (L-leucine-p-nitroanilide), homogenate of pHSP120-transfected Sf21 cells", "format": "biochemical, Manduca sexta", "settings": "homogenate 50 μg of proteins, pHSP120-transfected Sf21 cells (FIG. 9, column B)", "method": "(§3) Sf21 cells transfected with pHSP120 or pHSP-HR5 were collected and washed two times with PBS. The cells were suspended in 2 ml PBS and then homogenized with Potter-Helvehjem homogenizer. The cell homogenate was centrifuged at 27,000×g for 15 min at 4° C. The pellet was re-suspended in 2 ml of 10 mM Tris-HCl, 150 mM NaCl, pH 7.4. APN activity was assayed with L-leucine-p-nitroanilide as substrate as described previously (4). Briefly, the APN substrate (50 μl 6.8 mg/ml in methanol) was mixed with 1.4 ml of substrate buffer (10 mM Tris-HCl, 150 mM NaCl pH 7.4), and then the homogenate (50 μg of proteins) was added. The sample solution was incubated at 37° C. for 2 h. The level of APN activity was then determined by spectrophotometric measurement of free p-nitroanilide at […].\n(§4) Sf21 cells transfected with pHSP120 or pHSP-HR5 were collected and homogenized. The homogenate (50 μg of proteins) was tested for APN activity. A high level of APN activity was present in the cells transfected pHSP120 compared with that in the cells transfected with pHSP-HR5 (FIG. 9, columns A and C)."}, "[8]": {"system": "enzymatic activity of Sf21 cells transfected with pHSP-HR5", "test": "Aminopeptidase N activity assay (L-leucine-p-nitroanilide), homogenate of pHSP-HR5-transfected Sf21 cells", "format": "biochemical, Spodoptera frugiperda", "settings": "homogenate 50 μg of proteins, pHSP-HR5-transfected Sf21 cells (FIG. 9, column D)", "method": "as §3, §4"}}, "data": [{"molecule": "Cry1Ab: Bacillus thuringiensis Cry1 δ-endotoxin (literature)", "values": [{"measurement": "Binding to purified 115 kDa APN", "setting": "[1]", "value": "bind"}, {"measurement": "Specific binding to M. sexta 120 kDa APN", "setting": "[2]", "value": "bound specifically"}]}, {"molecule": "Cry1Ac: trypsin-activated, purified B. thuringiensis Cry1Ac toxin", "values": [{"measurement": "Mortality (%) (±SE), Cells transfected with pHSP 120", "setting": "[3]; 40 μg/ml toxin in insect PBS, Trypan blue (0.1%) staining, means of three assays (±standard error)", "value": "20.0 (±0.4) %"}, {"measurement": "Difference in mortality between pHSP120- and pHSP-HR5-transfected Sf21 cells", "setting": "[3]; 40 μg/ml toxin", "value": "no significant difference"}, {"measurement": "Toxicity in words", "setting": "[3]; 40 μg/ml toxin, Sf21 cells transfected with pHSP120", "value": "low toxicity"}, {"measurement": "Mortality (%) (±SE), Cells transfected with pHSP-HR5", "setting": "[4]; 40 μg/ml toxin in insect PBS, Trypan blue (0.1%) staining, means of three assays (±standard error), control vector", "value": "20.6 (±0.5) %"}, {"measurement": "Toxicity in words", "setting": "[4]; 40 μg/ml toxin, Sf21 cells transfected with pHSP-HR5", "value": "low toxicity"}, {"measurement": "Binding of rhodamine-labeled toxin (immunofluorescence)", "setting": "[5]", "value": "does not bind"}, {"measurement": "Binding of APN to toxin affinity column", "setting": "[6]", "value": "did not bind"}, {"measurement": "Binding to purified 115 kDa APN", "setting": "[1]", "value": "bind"}, {"measurement": "Specific binding to M. sexta 120 kDa APN", "setting": "[2]", "value": "bound specifically"}]}, {"molecule": "Cry1Aa: Bacillus thuringiensis Cry1 δ-endotoxin (literature)", "values": [{"measurement": "Binding to purified 115 kDa APN", "setting": "[1]", "value": "bind"}, {"measurement": "Specific binding to M. sexta 120 kDa APN", "setting": "[2]", "value": "bound specifically"}]}, {"molecule": "CC(C)C[C@@H](N)[C@H](O)C(=O)N[C@H](C(=O)N[C@H](C(=O)N[C@@H](CC(=O)O)C(=O)O)C(C)C)C(C)C", "note": "[Amastatin]", "values": [{"measurement": "Effect on APN activity", "setting": "[7]", "value": "greatly reduced"}, {"measurement": "Effect on APN activity", "setting": "[8]", "value": "did not show significantly impact"}]}]}
